Test results from article doi:10.1101/2024.02.08.579428.

T1: GUN1-FL (Arabidopsis thaliana, UniProt Q9SIC9 1-918)
T1 sequence: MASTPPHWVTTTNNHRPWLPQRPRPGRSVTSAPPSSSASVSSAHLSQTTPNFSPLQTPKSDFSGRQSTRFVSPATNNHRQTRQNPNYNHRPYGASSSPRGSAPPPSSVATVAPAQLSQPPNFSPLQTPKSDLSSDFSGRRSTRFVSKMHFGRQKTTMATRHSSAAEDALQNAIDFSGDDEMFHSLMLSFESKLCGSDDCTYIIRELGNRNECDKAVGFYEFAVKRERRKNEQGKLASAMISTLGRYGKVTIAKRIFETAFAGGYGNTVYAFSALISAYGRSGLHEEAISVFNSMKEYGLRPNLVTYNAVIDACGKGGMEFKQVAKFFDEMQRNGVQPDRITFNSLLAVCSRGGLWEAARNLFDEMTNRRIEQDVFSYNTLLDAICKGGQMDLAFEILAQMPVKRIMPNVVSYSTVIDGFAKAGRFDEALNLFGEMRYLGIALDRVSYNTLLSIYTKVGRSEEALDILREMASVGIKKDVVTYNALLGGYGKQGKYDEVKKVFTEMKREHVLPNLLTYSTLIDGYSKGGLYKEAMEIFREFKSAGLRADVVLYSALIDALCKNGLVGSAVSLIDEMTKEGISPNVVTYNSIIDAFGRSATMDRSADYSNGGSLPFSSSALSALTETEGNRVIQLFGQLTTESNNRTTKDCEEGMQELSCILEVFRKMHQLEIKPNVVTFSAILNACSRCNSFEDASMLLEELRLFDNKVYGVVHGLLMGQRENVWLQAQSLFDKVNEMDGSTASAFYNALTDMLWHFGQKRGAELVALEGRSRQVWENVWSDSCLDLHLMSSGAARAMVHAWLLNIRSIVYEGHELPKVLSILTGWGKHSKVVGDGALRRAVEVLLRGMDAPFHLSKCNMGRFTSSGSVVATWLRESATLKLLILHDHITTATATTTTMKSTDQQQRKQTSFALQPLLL

T2: GUN1-PS (Arabidopsis thaliana, UniProt Q9SIC9 232-918)
T2 sequence: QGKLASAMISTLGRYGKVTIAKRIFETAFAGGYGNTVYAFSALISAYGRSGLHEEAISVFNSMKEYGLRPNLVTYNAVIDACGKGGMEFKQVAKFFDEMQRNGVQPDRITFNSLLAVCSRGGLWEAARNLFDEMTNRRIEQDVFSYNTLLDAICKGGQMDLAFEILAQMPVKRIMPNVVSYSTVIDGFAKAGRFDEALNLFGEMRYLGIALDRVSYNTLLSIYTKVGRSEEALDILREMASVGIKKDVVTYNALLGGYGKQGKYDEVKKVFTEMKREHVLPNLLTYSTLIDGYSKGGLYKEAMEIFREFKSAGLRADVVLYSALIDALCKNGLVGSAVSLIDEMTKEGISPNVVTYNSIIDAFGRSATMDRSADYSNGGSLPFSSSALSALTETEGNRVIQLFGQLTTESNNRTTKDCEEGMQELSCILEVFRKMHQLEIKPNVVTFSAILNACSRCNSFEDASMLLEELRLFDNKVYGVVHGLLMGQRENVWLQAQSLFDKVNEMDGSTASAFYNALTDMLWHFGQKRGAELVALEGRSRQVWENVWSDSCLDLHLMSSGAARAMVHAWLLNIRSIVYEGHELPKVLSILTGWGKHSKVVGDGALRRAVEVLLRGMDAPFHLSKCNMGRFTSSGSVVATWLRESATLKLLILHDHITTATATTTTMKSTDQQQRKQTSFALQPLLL


Assays:
[1] = biological target: T1, GUN1-FL; assay: EMSA
[2] = biological target: T2, GUN1-PS; assay: EMSA

| Binder | binding result [1] | binding result [2] |
| --- | --- | --- |
| AGAAAAAAAUCUGUUGAUAAAUGAA (ssRNA) [ndhG_118454] | binds |  |
| AAGAGACAACCUGGCGAACUGAAAC (ssRNA) [23S_104856] | binds | binds |
